Source: paper PMC8220419

Columns and labels:
[1] = biological target: TGFBIp R555W (residues 45–632) (human) (UniProt Q15582); assay: in-line SEC-SAXS; in-line Superdex Increase 200 3.2/300 in 20 mM Tris, 150 mM NaCl, pH 7.4; ~0.5 to 1 mg/ml; rigid-body modeling
[2] = biological target: TGFBIp R555W (residues 45–632) (human) (UniProt Q15582); assay: SEC; calibrated SEC, Superdex 200 Increase 10/300 GL in PBS; TGFBIp at 7 μM
[3] = biological target: wildtype transforming growth factor-β–induced protein (TGFBIp), residues 45–632 (human) (UniProt Q15582); assay: in-line SEC-SAXS; in-line Superdex Increase 200 3.2/300 in 20 mM Tris, 150 mM NaCl, pH 7.4; ~0.5 to 1 mg/ml; rigid-body modeling
[4] = biological target: wildtype transforming growth factor-β–induced protein (TGFBIp), residues 45–632 (human) (UniProt Q15582); assay: SEC; calibrated SEC, Superdex 200 Increase 10/300 GL in PBS; TGFBIp at 7 μM
[5] = biological target: TGFBIp R124H (residues 45–632) (human) (UniProt Q15582); assay: in-line SEC-SAXS; in-line Superdex Increase 200 3.2/300 in 20 mM Tris, 150 mM NaCl, pH 7.4; ~0.5 to 1 mg/ml; rigid-body modeling
[6] = biological target: TGFBIp R124H (residues 45–632) (human) (UniProt Q15582); assay: SEC; calibrated SEC, Superdex 200 Increase 10/300 GL in PBS; TGFBIp at 7 μM
[7] = biological target: TGFBIp A546T (residues 45–632) (human) (UniProt Q15582); assay: as above

## TGFBIp R555W (residues 45–632) (from UniProt Q15582 45-632) (domain or fragment)
[1]
  stoichiometry N: 2
[2]
  stoichiometry N: 2

## wildtype transforming growth factor-β–induced protein (TGFBIp), residues 45–632 (from UniProt Q15582 45-632) (domain or fragment)
[3]
  stoichiometry N: 2
[4]
  stoichiometry N: 2

## TGFBIp R124H (residues 45–632) (from UniProt Q15582 45-632) (domain or fragment)
[5]
  stoichiometry N: 2
[6]
  stoichiometry N: 2

## TGFBIp A546T (residues 45–632) (from UniProt Q15582 45-632) (domain or fragment)
[7]
  stoichiometry N: 2
